These results are taken from US20220025003A1, “REAGENTS AND METHODS FOR CONTROLLING PROTEIN FUNCTION AND INTERACTION” (University of Washington, priority 2018, published 2022).

One experiment relates to NS3a in NIH3T3 cells. The experiment in a line: Confocal microscopy for colocalization analysis (fixed cells). The class given is cell-based. Conditions: 10 μM drug, 1 h. The method, then: A Leica SP8× system was used for confocal microscopy. […] TagBFP emission was recorded on a PMT detector, and EGFP and mCherry™ were detected by separate HyD™ detectors.
Colocalization experiments were performed in NIH3T3 cells (Flp-In-3T3, Thermo Fisher Scientific). For fixed-cell experiments, cells were plated at 3×10^4 cells/mL on sterile glass coverslides placed in 12-well culture plates. […] One day after transfection, cells were treated with drug or DMSO and fixed. Drug additions were performed by exchanging the media for DMEM+10% v/v FBS plus drug. To fix, cells were washed once with DPBS (Thermo Fisher Scientific), then incubated with 4% v/v paraformaldehyde in DPBS for 15 minutes. After washing twice with DPBS, coverslides with cells were removed from the plate and mounted on glass slides using Fluoromount-G (SouthernBiotech).
Colocalization of NS3a and DNCR1 at the plasma membrane, nucleus, mitochondria and Golgi was performed with two sets of constructs, with either NS3a or DNCR1 as the immobilized component. mCherry™-NS3a was used with Tom20-DNCR1-EGFP, DNCR1-EGFP-Giantin, and 3×NLS-DNCR1-EGFP. […] Colocalization was analyzed after 1 h of 10 μM drug or equal volume DMSO treatment.
All images were analyzed using ImageJ. […] EGFP fluorescence was quantified in the ROI over the timecourse. […] The cytoplasmic fluorescence was normalized to the value in the first and last frame for each cell. […]

For the next experiment, the target named is T1, NS3a/asunaprevir complex (Hepatitis C virus genotype 1a, UniProt P27958, C1073S/C1078L/C1185S/I1043Q/I1044E/I1098T/L1039E/L1040E/L1047Q/L1179I/N1200S/P1112Q/Q1106K/T1100M/T1173A).
T1 construct: made in house; host or cells: E. coli BL21 (DE3), pDW363 with BirA
Kind of experiment: Yeast surface display binding and titration. The text has this:
(§1) ; these sorts are denoted as “avid” below. […] See FIG. 30a for yeast gating strategies.
(§2) […]. Curves were fit using Graphpad Prism 5 to a one-site specific binding model with Hill coefficient.

The target in a further experiment is T2, NS3a/danoprevir complex (Hepatitis C virus genotype 1a, UniProt P27958, C1073S/C1078L/C1185S/I1043Q/I1044E/I1098T/L1039E/L1040E/L1047Q/L1179I/N1200S/P1112Q/Q1106K/T1100M/T1173A).
T2 construct: made in house; host or cells: E. coli BL21 (DE3), pDW363 with BirA
The experiment in a line: Yeast surface display binding and titration.
Source text: as §1, §2

In another experiment the target is T3, NS3a/grazoprevir complex (Hepatitis C virus genotype 1a, UniProt P27958, C1073S/C1078L/C1185S/I1043Q/I1044E/I1098T/L1039E/L1040E/L1047Q/L1179I/N1200S/P1112Q/Q1106K/T1100M/T1173A).
T3 construct: made in house; host or cells: E. coli BL21 (DE3), pDW363 with BirA
The experiment in a line: Yeast surface display binding and titration.
Source text: as §1, §2

B1: DNCR1: danoprevir/NS3a complex reader 1, intermediate-affinity variant, SEQ ID NO: 9 (protein)
chain: SSDEEEARELIERAKEAAERAQEAAERTGDPRVRELARELKRLAQEAAEEVKRDPSSSDVNEALKLIVEAIEAAVDALEAAERTGDPEVRELARELVRLAVEAAEEVQRNPSSSDVNEALLSIVIAIEAAVHALEAAERTGDPEVRELARELVRLAVEAAEEVQRNPSSREVEHALMKIVLAIYEAEESLREAEESGDPEKREKARERVREAVERAEEVQRDPSGWLNH
B1: the “Colocalization of DNCR1-EGFP and NS3a-mCherry” value with NS3a in NIH3T3 cells is “functional binding specificity for the danoprevir/NS3a complex”. Further, the Kd in the experiment with NS3a/asunaprevir complex (apparent, yeast-displayed design, NS3a/asunaprevir complex, read-out: KD (nM) ± standard deviation) was found to be 6300 ± 2600 nM; in the experiment with NS3a/danoprevir complex (apparent, yeast-displayed design, NS3a/danoprevir complex, read-out: KD (nM) ± standard deviation) it was 190 ± 10 nM; in the experiment with NS3a/grazoprevir complex (apparent, yeast-displayed design, NS3a/grazoprevir complex, read-out: KD (nM) ± standard deviation), 2900 ± 100 nM. Moreover, the Fold drug specificity with NS3a/asunaprevir complex (danoprevir/NS3a over asunaprevir/NS3a) was found to be 33 fold; in the experiment with NS3a/grazoprevir complex (danoprevir/NS3a over grazoprevir/NS3a), 15 fold. For the same molecule, in the experiment with NS3a/danoprevir complex (yeast surface display), the “binding to NS3a/danoprevir complex” value is “high nanomolar affinity”.
